From patent US20050113284A1 (published 2005)

B1: prey clone No. 3-309: C-terminal 91 amino acids of the human c-Met β chain fused to GAL4-AD (other, not shown: large carriers)
chain: RRLLQPEYCPDPLYEVMLKCWHPKAEMRPSFSELVSRISAIFSTFIGEHYVHVNATYVNVKCVAPYPSLLSSEDNADDEVDTRPASFWETS
notes: also called human HGF receptor c-Met prey vector
B2: c-Met prey protein B (amino acids 1013-1083 of SEQ ID NO: 4) fused to GAL4-AD (other, not shown: large carriers)
chain: WHPKAEMRPSFSELVSRISAIFSTFIGEHYVHVNATYVNVKCVAPYPSLLSSEDNADDEVDTRPASFWETS
notes: also called prey DNA B
B3: prey clone No. 2-211: C-terminal 56 amino acids of human MERMUC fused to GAL4-AD (other, not shown: large carriers)
chain: VSAGENGGFLLLRLSVASPEDLTDPRVAERLMQQLHRELHAHAPHFQVSLLRVRRG
B4: prey clone No. 3-312: C-terminal 89 amino acids of the human c-Met β chain fused to GAL4-AD (other, not shown: large carriers)
chain: LLQPEYCPDPLYEVMLKCWHPKAEMRPSFSELVSRISAIFSTFIGEHYVHVNATYVNVKCVAPYPSLLSSEDNADDEVDTRPASFWETS
B5: c-Met prey protein A (amino acids 1003-1083 of SEQ ID NO: 4) fused to GAL4-AD (other, not shown: large carriers)
chain: DPLYEVMLKCWHPKAEMRPSFSELVSRISAIFSTFIGEHYVHVNATYVNVKCVAPYPSLLSSEDNADDEVDTRPASFWETS
notes: also called prey DNA A
B6: MERMUC bait protein C260ΔC53 (amino acids 244-450 of SEQ ID NO: 10) fused to GAL4-DB (other, not shown: small tags and cut ends)
chain: VKASSTSDPPALPDSTEAKPHITEVTASAETLSTAGTTESAAPHATVGTPLPTNSATEREVTAPGATTLSGALVTVSRNPLEETSALSVETPSYVKVSGAAPVSIEAGSAVGKTTSFAGSSASSYSPSEAALKNFTPSETPTMDIATKGPFPTSRDPLPSVPPTTTNSSRGTNSTLAKITTSAKTTMKPPTATPTTARTRPTTDVSA
notes: also called C260A53; C260AC53
B7: c-Met prey protein C (amino acids 1023-1083 of SEQ ID NO: 4) fused to GAL4-AD (other, not shown: large carriers)
chain: FSELVSRISAIFSTFIGEHYVHVNATYVNVKCVAPYPSLLSSEDNADDEVDTRPASFWETS
notes: also called prey DNA C
B8: c-Met prey protein G (amino acids 993-1043 of SEQ ID NO: 4) fused to GAL4-AD (other, not shown: large carriers)
chain: RRLLQPEYCPDPLYEVMLKCWHPKAEMRPSFSELVSRISAIFSTFIGEHYV
notes: also called prey DNA G
B9: prey clone No. 2-22: C-terminal 93 amino acids of human MERMUC fused to GAL4-AD (other, not shown: large carriers)
chain: SSRGTNSTLAKITTSAKTTMKPPTATPTTARTRPTTDVSAGENGGFLLLRLSVASPEDLTDPRVAERLMQQLHRELHAHAPHFQVSLLRVRRG

Tests used:
[1] = biological target: MERMUC bait protein C260 (amino acids 244-503 of SEQ ID NO: 10) fused to GAL4-DB (yeast; human, UniProt P04386 1-147); experiment: yeast two-hybrid
Description: (§1) Yeast AH109 strain was cotransfected with each of the bait vectors and the prey vector carrying human HGF receptor c-Met (DNA corresponding to the C-terminal 91 amino acids of the human c-Met; clone No. 3-309) identified in Example 1.
(§2) The binding ability of MERMUC bait protein derived from each of the bait vectors to the HGF receptor c-Met β chain was analyzed by the yeast two-hybrid system described above.

[2] = biological target: MERMUC bait protein C53 (amino acids 451-503 of SEQ ID NO: 10) fused to GAL4-DB (yeast; human, UniProt P04386 1-147); experiment: yeast two-hybrid
Description: as §1, §2

[3] = biological target: T1, human MERMUC bait-2 protein (C-terminal 123 amino acids of human MERMUC fused to GAL4-DB) (yeast; human); experiment: yeast two-hybrid screen of a human kidney cDNA library
T1 construct: also called MERMUC bait protein; fusion protein A
Description: Specifically, yeast two hybrid system (Proc. Natl. Acad. Sci. USA., 1991, Vol.88, p.9578-9582) was performed to screen a human kidney cDNA library using cDNA corresponding to the C-terminal region of the human MERMUC as the bait (that is, fishing bait).
On the other hand, each cDNA of the human kidney derived cDNA library (CLONTECH) that is used for the screening with the bait vector is inserted in pADK vector (tryptophan biosynthesis gene as a marker). Therefore, proteins produced through the expression of each of these cDNAs in yeast are produced as a fusion protein ([fusion protein B]) with the GAL4 transcriptional activation region (GAL4-AD).

[4] = biological target: T1, human MERMUC bait-2 protein (C-terminal …); experiment: yeast two-hybrid (growth on SD/-Leu,-Trp,-His and SD/-Leu,-Trp,-Ade)
Description: The binding activity between the c-Met prey proteins derived from the 7 DNA fragments and the MERMUC bait protein was analyzed by the yeast two-hybrid system described in Example 1. Specifically, the binding activity was evaluated based on the growth of yeast transformed with the vector on 2 kinds of yeast minimum media, i.e., (1) SD/-Leu, -Trp, -His media and (2) SD/-Leu, -Trp, -Ade media.

[5] = biological target: B1; experiment: yeast two-hybrid
Description: as §1, §2

Row | Binder | binding result [3] | binding result [4] | also measured
1 | B1 | binds | – | binding result [1]: binds; binding result [2]: binds
2 | B2 | – | binds | –
3 | B3 | binds | – | –
4 | B4 | binds | – | –
5 | B5 | – | binds | –
6 | B6 | – | – | binding result [5]: no binding
7 | B7 | – | no binding | –
8 | B8 | – | no binding | –
9 | B9 | binds | – | –
